Measurements as given in patent publication US20250352667A1.

What was measured:
[1] = biological target: KEAP1 (wild-type full-length), His-tagged (human) (UniProt Q14145); assay: AlphaScreen; 19.2 nM FLAG-NRF2, 150 nM His-KEAP1; against wild-type NRF2 isoform 2 = 100%
[2] = biological target: KEAP1 (wild-type full-length), His-tagged (human) (UniProt Q14145); assay: AlphaScreen; 9.6 nM FLAG-NRF2, 150 nM His-KEAP1 (same value as in Table 23)
[3] = biological target: KEAP1 (wild-type full-length), His-tagged (human) (UniProt Q14145); assay: AlphaScreen; 19.2 nM FLAG-NRF2, 150 nM His-KEAP1; Repeat 2 (same value as in Table 23)
[4] = biological target: KEAP1 (wild-type full-length), His-tagged (human) (UniProt Q14145); assay: AlphaScreen; mean over 9.6, 19.2 and 38.4 nM NRF2; 150 nM His-KEAP1; against wild-type NRF2 isoform 2
[5] = biological target: KEAP1 (wild-type full-length), His-tagged (human) (UniProt Q14145); assay: AlphaScreen; 9.6 nM FLAG-NRF2, 150 nM His-KEAP1; signal against NRF2 only
[6] = biological target: KEAP1 (wild-type full-length), His-tagged (human) (UniProt Q14145); assay: AlphaScreen; 38.4 nM FLAG-NRF2, 150 nM His-KEAP1; Repeat 2 (same value as in Table 23)
[7] = biological target: KEAP1 (wild-type full-length), His-tagged (human) (UniProt Q14145); assay: AlphaScreen; 38.4 nM FLAG-NRF2, 150 nM His-KEAP1 (same value as in Table 23)
[8] = biological target: KEAP1 (wild-type full-length), His-tagged (human) (UniProt Q14145); assay: AlphaScreen; 38.4 nM FLAG-NRF2, 150 nM His-KEAP1; against wild-type NRF2 isoform 2 = 100%
[9] = biological target: KEAP1 (wild-type full-length), His-tagged (human) (UniProt Q14145); assay: AlphaScreen; mean over 9.6, 19.2 and 38.4 nM NRF2; 150 nM His-KEAP1; against wild-type NRF2 isoform 2 = 100%
[10] = biological target: KEAP1 (wild-type full-length), His-tagged (human) (UniProt Q14145); assay: AlphaScreen; 9.6 nM FLAG-NRF2, 150 nM His-KEAP1; Repeat 1 (same value as in Table 23)
[11] = biological target: KEAP1 (wild-type full-length), His-tagged (human) (UniProt Q14145); assay: AlphaScreen; average of three conditions; against wild-type NRF2 isoform 2
[12] = biological target: KEAP1 (wild-type full-length), His-tagged (human) (UniProt Q14145); assay: AlphaScreen; standard deviation of three conditions; against wild-type NRF2 isoform 2
[13] = biological target: KEAP1 (wild-type full-length), His-tagged (human) (UniProt Q14145); assay: AlphaScreen, all variants on one plate; upper condition (38.4 nM NRF2), KEAP1 150 nM; relative to NRF2 (WT) isoform 2
[14] = biological target: KEAP1 (wild-type full-length), His-tagged (human) (UniProt Q14145); assay: AlphaScreen, all variants on one plate; lower condition (9.6 nM NRF2), KEAP1 150 nM; relative to NRF2 (WT) isoform 2
[15] = biological target: KEAP1 (wild-type full-length), His-tagged (human) (UniProt Q14145); assay: AlphaScreen, all variants on one plate; lower condition (9.6 nM NRF2), KEAP1 150 nM; the reference itself
[16] = biological target: KEAP1 (wild-type full-length), His-tagged (human) (UniProt Q14145); assay: AlphaScreen; 38.4 nM FLAG-NRF2, 150 nM His-KEAP1; wild type set to 100%
[17] = biological target: KEAP1 (wild-type full-length), His-tagged (human) (UniProt Q14145); assay: AlphaScreen; 9.6 nM FLAG-NRF2, 150 nM His-KEAP1; wild type set to 100%
[18] = biological target: KEAP1 (wild-type full-length), His-tagged (human) (UniProt Q14145); assay: AlphaScreen; mean over 9.6, 19.2 and 38.4 nM NRF2; 150 nM His-KEAP1
[19] = biological target: KEAP1 (wild-type full-length), His-tagged (human) (UniProt Q14145); assay: AlphaScreen; 38.4 nM FLAG-NRF2, 150 nM His-KEAP1 (same value as in Table 22)
[20] = biological target: KEAP1 (wild-type full-length), His-tagged (human) (UniProt Q14145); assay: AlphaScreen; 19.2 nM FLAG-NRF2, 150 nM His-KEAP1; wild type set to 100%
[21] = biological target: KEAP1 (wild-type full-length), His-tagged (human) (UniProt Q14145); assay: AlphaScreen; 19.2 nM FLAG-NRF2, 150 nM His-KEAP1; Repeat 1 (same value as in Table 22)
[22] = biological target: KEAP1 (wild-type full-length), His-tagged (human) (UniProt Q14145); assay: AlphaScreen; 19.2 nM FLAG-NRF2, 150 nM His-KEAP1 (same value as in Table 22)
[23] = biological target: KEAP1 (wild-type full-length), His-tagged (human) (UniProt Q14145); assay: AlphaScreen; 19.2 nM FLAG-NRF2, 150 nM His-KEAP1; Repeat 2 (same value as in Table 22)
[24] = biological target: KEAP1 (wild-type full-length), His-tagged (human) (UniProt Q14145); assay: AlphaScreen; 9.6 nM FLAG-NRF2, 150 nM His-KEAP1; Repeat 2 (same value as in Table 22)
[25] = biological target: KEAP1 (wild-type full-length), His-tagged (human) (UniProt Q14145); assay: AlphaScreen, all variants on one plate; upper condition (38.4 nM NRF2), KEAP1 150 nM; the reference itself
[26] = biological target: KEAP1 (wild-type full-length), His-tagged (human) (UniProt Q14145); assay: AlphaScreen; 9.6 nM FLAG-NRF2, 150 nM His-KEAP1 (same value as in Table 22)
[27] = biological target: KEAP1 (wild-type full-length), His-tagged (human) (UniProt Q14145); assay: AlphaScreen; 38.4 nM FLAG-NRF2, 150 nM His-KEAP1; Repeat 1 (same value as in Table 22)

KEAP1 (wild-type full-length), His-tagged (human), sequence (Q14145 2-624 limits assumed, form in doubt): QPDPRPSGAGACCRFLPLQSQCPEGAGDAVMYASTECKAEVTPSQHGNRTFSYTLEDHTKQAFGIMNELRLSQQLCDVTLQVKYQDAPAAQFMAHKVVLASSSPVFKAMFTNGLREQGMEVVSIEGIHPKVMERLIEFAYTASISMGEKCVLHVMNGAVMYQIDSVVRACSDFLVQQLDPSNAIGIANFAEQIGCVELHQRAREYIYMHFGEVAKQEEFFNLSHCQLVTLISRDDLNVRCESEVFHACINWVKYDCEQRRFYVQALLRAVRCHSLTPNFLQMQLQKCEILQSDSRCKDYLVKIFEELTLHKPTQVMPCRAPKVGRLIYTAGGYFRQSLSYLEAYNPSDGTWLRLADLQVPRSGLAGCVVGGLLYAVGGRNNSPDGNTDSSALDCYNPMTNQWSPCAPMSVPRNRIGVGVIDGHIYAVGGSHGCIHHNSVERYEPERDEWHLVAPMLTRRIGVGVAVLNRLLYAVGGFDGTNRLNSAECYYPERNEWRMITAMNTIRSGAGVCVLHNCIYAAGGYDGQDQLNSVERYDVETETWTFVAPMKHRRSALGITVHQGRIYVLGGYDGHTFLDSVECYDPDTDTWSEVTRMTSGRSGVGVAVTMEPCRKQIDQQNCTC

Substance: NRF2 isoform 2 (E63G/E66G full-length), FLAG-tagged
- Binding Percentage (%) [1]: 19.2%
- S/N [2]: 1.8
- A-counts [3]: 1950 A-counts
- Avg. Reduction in Binding [4]: 69.1%
- S/N [5]: 1.8
- A-counts [6]: 1960 A-counts
- S/N [7]: 1.8
- Binding Percentage (%) [8]: 37.8%
- Average Binding [9]: 30.9%
- A-counts [10]: 1670 A-counts
- Reported Value (reduction in binding) [11]: 69.1%
- Reported Value (standard deviation of reduction in binding) [12]: 10.2%
- % Disruption in Binding [13]: 61.9%
- % Disruption in Binding [14]: 63.4%

Substance: NRF2 isoform 2 (wild-type full-length), FLAG-tagged
- % Disruption in Binding [15]: 0%
- Binding Percentage (%) [16]: 100%
- S/N [5]: 3.7
- Binding Percentage (%) [17]: 100%
- Average Binding [18]: 100%
- S/N [19]: 3.4
- Binding Percentage (%) [20]: 100%
- A-counts [21]: 3480 A-counts
- S/N [22]: 4.2
- A-counts [23]: 3260 A-counts
- A-counts [24]: 2590 A-counts
- % Disruption in Binding [25]: 0%
- S/N [26]: 3.7
- A-counts [27]: 3470 A-counts
